Results: patent US5804412
Each block holds one substance with its values, some of them ahead of it.

Legend:
[1] = molecular target: endogenous EGFR of CV-1 cells (monkey (endogenous EGFR of CV-1 monkey kidney cells)); assay: Scatchard analysis of 125I-EGF binding to SNX1 transfected CV-1 cells
[2] = molecular target: endogenous EGFR of CV-1 cells (monkey (endogenous EGFR of CV-1 monkey kidney cells)); assay: Scatchard analysis of 125I-EGF binding to vector transfected control CV-1 cells
[3] = molecular target: EGFR core tyrosine kinase domain (residues 663-958) fused to LexA (human) (UniProt P00533); assay: yeast two hybrid, LexA-EGFR bait and SNX1-B42 prey, galactose against dextrose control
[4] = molecular target: endogenous EGFR of CV-1 cells (monkey (endogenous EGFR of CV-1 monkey kidney cells))

- Kd [1]: 1.34 nM
- Kd [2]: 0.73 nM
Substance: 125I-EGF (ligand)

- induction of β-gal activity in response to galactose induction [3]: 400 x
Substance: carboxy terminal 58 amino acids of SNX1 fused to the B42 acid patch transcriptional activation domain

- EGFR half life (35S-methionine pulse chase, immunoprecipitation) [4]: 2 h
Substance: human SNX1 (sorting nexin 1), full length
